Reference: patent US20100305304A1 (COMPLIX, published 2010)

Experiments:
[1] = target: the molecule itself; assay: self-association of the peptide chains into a homotrimer; CD thermal unfolding curve fitted to a monomer-trimer equilibrium
Method: The said synthesized peptide was dissolved at a concentration of 292 microM in 20 mM phosphate buffer (PBS), 150 mM NaCl, pH 7.2. The CD spectra were measured between […], at 5 and 90 degrees Celsius (FIG. 3). The spectrum at 5 degrees Celsius was indicative of a high alpha-helical secondary structure content, in agreement with the expectation that all heptad regions, but not all of the flanking residues, would assemble as alpha-helical coiled coils.
To analyse whether the temperature-induced transition between helical and nonhelical states was reversible, a forward (up) and backward (down) thermal scan was performed on the same sample, by recording the CD signal at […] as a function of temperature at a scanning rate of about 1 degree Celsius per minute (FIG. 4). It was observed that the up and down scans almost perfectly coincided, thereby confirming the quantitative unfolding and refolding of the peptides in the sample.
FIG. 5 represents fitting of a theoretic equation for trimeric association to experimental data. The experimental data are taken from FIG. 4, curve labeled “UP”. The theoretic equations used are listed supra. The fitted parameters (fitting results) are listed at the right in FIG. 5. “Transit. T” corresponds to Tₜ, but is expressed here in degrees Celsius. The parameter “delta Cₚ” was kept constant at 3.0 kJ mol⁻¹ K⁻¹. […]

[2] = target: the molecule itself; assay: self-association of the peptide chains into a homotrimer; sedimentation equilibrium ultracentrifugation

B1: reference peptide Q2a (Ac-MSIEEIQKQQAAIQKQIAAIQKQIYRMTP-NH2) (peptide)
peptide: Ac-MSIEEIQKQQAAIQKQIAAIQKQIYRMTP-NH2
notes: Synthetic peptide; Three copies associate non-covalently into a parallel alpha-helical coiled coil; also called untagged peptide
binding result [1]: binds

B2: Q2aI peptide (Ac-MSIEEIQKQIAAIQKQIAAIQKQIYRMTP-NH2) (peptide)
peptide: Ac-MSIEEIQKQIAAIQKQIAAIQKQIYRMTP-NH2
notes: Synthetic peptide; also called untagged peptide
binding result [2]: binds
